{"source": "paper PMC12521514", "molecules": {"B1": {"name": "Staphylococcus aureus ClpP wild type, Q2G036 1-195 (enzyme)", "chain": "MNLIPTVIETTNRGERAYDIYSRLLKDRIIMLGSQIDDNVANSIVSQLLFLQAQDSEKDIYLYINSPGGSVTAGFAIYDTIQHIKPDVQTICIGMAASMGSFLLAAGAKGKRFALPNAEVMIHQPLGGAQGQATEIEIAANHILKTREKLNRILSERTGQSIEKIQKDTDRDNFLTAEEAKEYGLIDEVMVPETK"}}, "key": {"[1]": {"molecular_target": "ClpP-N12A (Staphylococcus aureus) (UniProt Q2G036)", "experiment": "negative stain EM"}, "[2]": {"molecular_target": "T1, Staphylococcus aureus ClpP wild type (Staphylococcus aureus), Q2G036", "T1 chain": "B1 chain", "details": "remark: other sources report otherwise"}}, "data": [{"molecule": "ClpP-N12A (from UniProt Q2G036) (enzyme)", "values": [{"measurement": "stoichiometry N", "setting": "[1]", "value": 14}]}, {"molecule": "B1", "values": [{"measurement": "stoichiometry N", "setting": "[2]", "value": 14}]}]}
